How the values were obtained:
[1] = target: p65 subunit of NF-κB expressed from pCMV-p65 (Homo sapiens (Human)) (UniProt Q04206); assay: cell-based or functional assay
[2] = target: T1, p65 subunit of NF-κB expressed from pCMV-p65 (Homo sapiens (Human), UniProt Q04206 1-551, limits assumed); assay: cell-based or functional assay
[3] = target: T1, p65 subunit of NF-κB expressed from …; assay: co-immunoprecipitation from transfected BV-2 cells

Sequence of p65 subunit of NF-κB expressed from pCMV-p65 (Homo sapiens (Human)) (Q04206 whole entry S180P): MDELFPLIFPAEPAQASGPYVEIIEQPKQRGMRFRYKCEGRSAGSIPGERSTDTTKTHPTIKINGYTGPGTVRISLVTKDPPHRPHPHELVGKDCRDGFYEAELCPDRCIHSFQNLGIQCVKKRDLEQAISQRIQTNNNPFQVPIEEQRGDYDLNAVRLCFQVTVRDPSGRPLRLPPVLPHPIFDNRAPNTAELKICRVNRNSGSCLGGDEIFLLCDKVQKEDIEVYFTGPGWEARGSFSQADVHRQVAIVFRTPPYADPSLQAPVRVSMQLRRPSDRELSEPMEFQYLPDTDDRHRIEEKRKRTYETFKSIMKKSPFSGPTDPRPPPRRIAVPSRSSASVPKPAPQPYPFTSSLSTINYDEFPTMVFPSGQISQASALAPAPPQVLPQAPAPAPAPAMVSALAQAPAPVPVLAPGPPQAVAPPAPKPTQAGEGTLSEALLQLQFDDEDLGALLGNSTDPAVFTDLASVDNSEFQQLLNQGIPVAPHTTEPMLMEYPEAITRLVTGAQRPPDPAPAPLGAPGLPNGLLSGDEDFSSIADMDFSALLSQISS
T1 sequence (Q04206 whole entry S180P): as above

Molecule “endogenous mouse TDP-43 (from UniProt Q921F2 1-414)” has a decrease in NF-κB activation (4κB^wt-luc) with TDP-43 siRNA versus scrambled siRNA, 5 ng pCMV-p65 [1] of 3 fold, a decrease in NF-κB activation (4κB^wt-luc) with TDP-43 siRNA versus scrambled siRNA, 50 ng pCMV-p65 [1] of 2 fold and a decrease in NF-κB activation (4κB^wt-luc) with TDP-43 siRNA versus scrambled siRNA, 10 and 20 ng pCMV-p65 [1] of 2.5 fold.

B1: TDP-43^ΔN (1-105AAs), HA-tagged deletion mutant (other, not shown: small tags and cut ends)
chain: LIVLGLPWKTTEQDLKEYFSTFGEVLMVQVKKDLKTGHSKGFGFVRFTEYETQVKVMSQRHMIDGRWCDCKLPNSKQSQDEPLRSRKVFVGRCTEDMTEDELREFFSQYGDVMDVFIPKPFRAFAFVTFADDQIAQSLCGEDLIIKGISVHISNAEPKHNSNRQLERSGRFGGNPGGFGNQGGFGNSRGGGAGLGNNQGSNMGGGMNFGAFSINPAMMAAAQAALQSSWGMMGMLASQQNQSGPSGNNQNQGNMQREPNQAFGSGNNSYSGSNSGAAIGWGSASNAGSGSGFNGGFGSSMDSKSSGWGM
In the case of B1, the “NF-κB gene activation (4κB^wt-luc reporter), compared to full length TDP-43^wt” value [2] is reported as 2 fold.

B2: TDP-43^ΔNR1-30 (31-81 and 98-176 AAs), N-terminal and RRM-1 deletion mutant with the NLS signal attached (other)
chain: MSEYIRVTEDENDEPIEIPSEDDGTVLLSTKRKMDETDASSAVKVKLPNSKQSQDEPLRSRKVFVGRCTEDMTEDELREFFSQYGDVMDVFIPKPFRAFAFVTFADDQIAQSLCGEDLIIKGISVHISNAEPKHNSNRQLERSGRFGGNPGGFGNQGGFGNSRGGGAGLGNNQGSNMGGGMNFGAFSINPAMMAAAQAALQSSWGMMGMLASQQNQSGPSGNNQNQGNMQREPNQAFGSGNNSYSGSNSGAAIGWGSASNAGSGSGFNGGFGSSMDSKSSGWGM
notes: The printed ranges in brackets are read as the deleted residues (31-81 and 98-176); not shown: HA (hemagglutinin) tag at the extreme C-terminus
With B2 the “level of NF-κB activation detected by the 4κB^wt-luc reporter assay” value [2] was 6 fold lower and the binding result [3] was “no binding”.

— US20160091504A1 (UNIVERSITE LAVAL, published 2016)
